In US12209135B2, “Anti-CD45 antibodies and conjugates thereof” (priority 2019, dated 2025):
Substitutions are numbered along the chain they refer to.

B1: Ab3: affinity matured human anti-CD45 IgG derived from Ab1; VH SEQ ID NO:21, VL SEQ ID NO:25 (antibody, V domains shown)
VH: QVQLVESGGGLVKPGGSLRLSCAASGFTFGGYSMNWVRQAPGKGLEWVSYISISGATITYADSVKGRFTISRDNAKNSLYLQMNSLRAEDTAVYYCARGGQYYYDSSDYGEVAFDIWGQGTMVTVSS
VL: DIVMTQSPLSLPVTPGEPASISCRSSQSLVSNGYNYLDWYLQKPGQSPQLLIYFGSSRASGVPDRFSGSGSGTDFTLKISRVEAEDVGVYYCMQRRRTPPFTFGGGTKVEIK
B2: Ab4: affinity matured human anti-CD45 IgG derived from Ab1; VH SEQ ID NO:31, VL SEQ ID NO:35 (antibody, V domains shown)
VH: B1 VH with Q1E, K13Q, G30E, G31A, I53L, T59H, D105T
VL: DIVMTQSPLSLPVTPGEPASISCRSSQSLVSNGYNYLDWYLQKPGQSPQLLIYFGSSRASGVPDRFSGSGSGTDFTLKISRVEAEDVGVYYCMQRRRTPWSFGGGTKVEIK

How the values were obtained:
human CD45 ectodomain = target: T1, human CD45 ectodomain (Homo sapiens, UniProt P08575); assay: Biolayer interferometry (BLI, Octet) binding of immobilized IgG to purified CD45 ectodomain; details: Table 2, Human CD45
T1 construct: purified human, rhesus or cynomolgus CD45 ectodomain
T1 sequence (P08575 26-577): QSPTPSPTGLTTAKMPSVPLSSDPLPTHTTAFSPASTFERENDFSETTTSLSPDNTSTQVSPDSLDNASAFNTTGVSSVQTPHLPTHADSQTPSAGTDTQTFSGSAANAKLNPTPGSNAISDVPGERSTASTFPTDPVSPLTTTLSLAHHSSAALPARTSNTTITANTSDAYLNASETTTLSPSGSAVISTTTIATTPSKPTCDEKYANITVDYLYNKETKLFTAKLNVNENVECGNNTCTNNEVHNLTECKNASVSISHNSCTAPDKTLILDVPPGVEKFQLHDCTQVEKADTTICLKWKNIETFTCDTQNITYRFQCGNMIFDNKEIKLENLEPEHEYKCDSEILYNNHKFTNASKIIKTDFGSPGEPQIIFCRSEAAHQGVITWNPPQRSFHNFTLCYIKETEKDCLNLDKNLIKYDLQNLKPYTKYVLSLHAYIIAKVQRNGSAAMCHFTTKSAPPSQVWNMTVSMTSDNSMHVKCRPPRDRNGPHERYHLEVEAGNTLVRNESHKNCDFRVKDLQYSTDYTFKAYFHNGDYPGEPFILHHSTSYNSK
Protocol: (§1) Antibody binding studies were performed at 25° C. in 1×PBS supplemented with 0.1% w/v bovine serum albumin with a Pall ForteBio Octet Red96 using biolayer interferometry (BLI).
(§2) The apparent monovalent affinity (KD), apparent association rate (KON), and apparent dissociation rate (KOFF) were determined by local full fitting with a 1:1 binding model as calculated by ForteBio data analysis software version 10 of each IgG to purified human, cynomolgus or rhesus CD45 ectodomain. […] Binding was confirmed using
Briefly, antibody binding studies were performed at 25° C. in 1×PBS supplemented with 0.1% w/v bovine serum albumin with a PALL FORTEBIO OCTET RED96 using biolayer interferometry (BLI). Each purified antibody was immobilized onto anti-human Fc biosensors (AHQ; PALL FORTEBIO 18-5001) and incubated with 100 nM of purified human or 300 nM of cynomolgus CD45 ectodomain.
(§3) The apparent monovalent affinity (KD), apparent association rate (KON), and apparent dissociation rate (KDIS or KOFF) were determined by local full fitting with a 1:1 binding model as calculated by FORTEBIO data analysis software version 10. […] Each of the selected humanized antibodies AbA, AbB, and AbC was able to cross react with human and cynomolgus CD45.

[1] = system: cynomolgus CD45 ectodomain; assay: as above; details: Table 2, Cynomolgus CD45; for Kd: 50 nM antigen (Ab1: 300 nM)
Protocol: as §1, §2
Briefly, antibody binding studies were performed at 25° C. in 1×PBS supplemented with 0.1% w/v bovine serum albumin with a PALL FORTEBIO OCTET RED96 using biolayer interferometry (BLI). […]
as §3

rhesus CD45 ectodomain = target: T2, rhesus CD45 ectodomain (Macaca mulatta, UniProt A0A1D5R142); assay: as above; details: Table 2, Rhesus CD45; for Kd: 50 nM antigen (Ab1: 300 nM)
T2 construct: purified human, rhesus or cynomolgus CD45 ectodomain
T2 sequence (A0A1D5R142 26-581): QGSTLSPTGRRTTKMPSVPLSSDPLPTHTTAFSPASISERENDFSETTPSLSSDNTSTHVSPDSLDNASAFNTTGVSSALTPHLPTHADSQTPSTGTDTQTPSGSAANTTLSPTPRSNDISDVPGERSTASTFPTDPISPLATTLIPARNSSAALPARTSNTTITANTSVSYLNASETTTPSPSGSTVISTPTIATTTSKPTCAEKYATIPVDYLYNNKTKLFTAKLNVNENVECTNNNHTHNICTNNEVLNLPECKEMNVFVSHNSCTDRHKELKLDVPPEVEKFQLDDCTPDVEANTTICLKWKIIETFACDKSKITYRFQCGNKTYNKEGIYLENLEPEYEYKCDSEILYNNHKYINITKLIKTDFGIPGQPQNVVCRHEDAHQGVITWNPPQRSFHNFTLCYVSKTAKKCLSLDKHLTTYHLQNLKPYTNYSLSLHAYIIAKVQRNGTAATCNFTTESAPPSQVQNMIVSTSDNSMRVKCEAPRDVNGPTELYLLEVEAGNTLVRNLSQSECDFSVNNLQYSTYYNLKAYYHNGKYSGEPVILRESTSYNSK
Protocol: as §1
The apparent monovalent affinity (KD), apparent association rate (KON), and apparent dissociation rate (KOFF) were determined by local full fitting with a 1:1 binding model as calculated by ForteBio data analysis software version 10 of each IgG to purified human, cynomolgus or rhesus CD45 ectodomain. […] Binding was confirmed using […]

[2] = Two-week thermal / pH stress stability by HIC and peptide mapping; format: physicochemical; details: 4° C., 25° C., 40° C. for 15 days; high pH treatment
Protocol: A two-week stability assay was performed by incubating Ab3 and Ab4 at 4° C., 25° C., and 40° C. for 15 days, after which the antibodies were analyzed by […] (HIC). Briefly, 25 micrograms of the indicated antibody were injected onto a Tosoh TSKgel Phenyl-5PW 7.5 mm ID×7.5 cm 10-micron column (Catalog #07573) on a Waters ARC HPLC/UPLC system. […] This hydrophilic pre-peak was indicative of a potential site of post-translational modification (e.g., oxidation or deamidation). Peptide mapping was subsequently performed to identify which amino acids were modified in each antibody upon exposure to stress (high pH, low pH, and oxidative stress). The peptide mapping analysis identified a potential site of deamidation at an asparagine in CDR-L1 (N30 position) in response to high pH conditions (e.g., pH 8 or greater).
Accordingly, variants of Ab3 and Ab4 were generated in which the asparagine in CDR-L1 (e.g., at position 30B) was substituted with a serine. The resulting antibodies were named Ab7 and Ab5 respectively.

Sequence of cynomolgus CD45 ectodomain (as listed by the source): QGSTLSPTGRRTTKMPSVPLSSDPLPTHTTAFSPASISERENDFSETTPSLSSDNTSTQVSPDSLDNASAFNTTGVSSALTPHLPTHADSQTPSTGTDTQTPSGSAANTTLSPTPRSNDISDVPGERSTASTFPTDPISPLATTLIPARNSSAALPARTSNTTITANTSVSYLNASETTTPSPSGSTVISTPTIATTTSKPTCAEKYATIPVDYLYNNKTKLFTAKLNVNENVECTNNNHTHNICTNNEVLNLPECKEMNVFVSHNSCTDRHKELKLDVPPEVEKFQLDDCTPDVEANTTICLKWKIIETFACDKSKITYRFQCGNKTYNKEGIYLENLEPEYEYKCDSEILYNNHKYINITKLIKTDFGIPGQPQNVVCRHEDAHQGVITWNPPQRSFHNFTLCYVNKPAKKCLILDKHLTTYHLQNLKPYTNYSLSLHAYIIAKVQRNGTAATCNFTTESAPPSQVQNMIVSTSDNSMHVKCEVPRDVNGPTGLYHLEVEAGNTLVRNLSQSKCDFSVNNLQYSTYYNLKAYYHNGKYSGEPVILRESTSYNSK

| Molecule | Kdis (human CD45 ectodomain) [s⁻¹] | Kon (human CD45 ectodomain) [M⁻¹ s⁻¹] | Kdis [1] [s⁻¹] | Kon [1] [M⁻¹ s⁻¹] | Kd [1] [nM] | Kdis (rhesus CD45 ectodomain) [s⁻¹] | Kon (rhesus CD45 ectodomain) [M⁻¹ s⁻¹] | Kd (rhesus CD45 ectodomain) [nM] | HIC hydrophilic pre-peak (deamidated species) [2] |
| --- | --- | --- | --- | --- | --- | --- | --- | --- | --- |
| B1 | 0.000225 | 260000 | 0.000192 | 120000 | 1.61 | 0.000222 | 135000 | 1.65 | hydrophilic pre-peak that increased as a function of thermal stress |
| B2 | 3.28e-06 | 236000 | 7.89e-05 | 110000 | 0.721 | 0.000102 | 118000 | 0.867 | hydrophilic pre-peak that increased as a function of thermal stress |
